Reference: patent US20040030097A1, “Peptide mimetics” (priority 2000, published 2004)
pEC50, pKd: −log10 of the molar value. Each block holds one substance with its values, some of them ahead of it.

Assays:
cell proliferation = conditions: EPO, read-out: EC50 (concentration for half maximal response); cited from earlier work
[1] = biological target: T1, IL-4Rα (recombinant extracellular domain of the receptor α-chain [C182A,Q206C]-IL4-BP) (Homo sapiens, UniProt P24394, C207A/Q231C); assay: Surface plasmon resonance binding assay (BIAcore 2000) with immobilized IL-4Rα; conditions: 25° C., HBS buffer, physiological salt concentration
T1 construct: A recombinant extracellular domain of the receptor α-chain [C182A,Q206C]-IL4-BP was immobilized
Description: The binding affinities of the designed peptide mimetics were measured by surface plasmon resonance using a BIAcore 2000 (Pharmacia Biosensor AB). A recombinant extracellular domain of the receptor α-chain [C182A,Q206C]-IL4-BP was immobilized at a biosensor CM5 to a density of 1500 to 2000 pg/mm^2, as described by Shen et al. (Shen et al., 1996). Ligand binding was analyzed at 25° C. by perfusion with HBS buffer (10 mM Hepes, pH 7.4/150 mM NaCl/3.4 mM EDTA/0.005% surfactant P20) at a flow rate of 50 μl/min.

HeLa cells = assay: Toxicity experiments with HeLa cells; format: cell-based
[2] = Far UV circular dichroism, helical content; format: physicochemical; conditions: far UV CD, 278 K, 15 μM peptide, from ellipticity at 222 nm
Description: The far UV CD spectra of the peptide was recorded, on a Jasco-710 instrument, at 278 K, in a cuvette with a 2 mm path. Measurements were made every 0.1 nm, with a response time of 2 s and a bandwidth of 1 nm, at a scan speed of 50 nm/min. The spectra shown in the text represent an average over 20 scans. The peptide concentration, calculated from the absorbance at 280 nm (Pace et al., 1995) was 15 μM. The helical percentage was calculated from the mean residue ellipticity at 222 nm, taking into account the peptide length (Chen et al., 1974), according to the following:
where n is the number of residues in the peptide and θ^obs222 nm is the ellipticity of the peptide at 222 nm. The CD experiments were carried out using the same buffer conditions as in the surface plasmon resonance assays.
(§1) A helical content of 34% was calculated as described above was. […] (FIG. 5).

[3] = Temperature denaturation monitored by CD at 222 nm; format: physicochemical
Description: The thermal denaturation was measured by monitoring the change in signal at 222 nm over a temperature range of 5-80° C., in a cuvette with a 2 mm path. Measurements were made in 0.5 degrees increments, with a response time of 2 s and a bandwidth of 1 nm, at a temperature slope of 50° C./h. The peptide concentration calculated from the absorbance at 280 nm was 15 μM (Pace et al., 1995).
as §1

T1 sequence (P24394 26-232 C207A/Q231C): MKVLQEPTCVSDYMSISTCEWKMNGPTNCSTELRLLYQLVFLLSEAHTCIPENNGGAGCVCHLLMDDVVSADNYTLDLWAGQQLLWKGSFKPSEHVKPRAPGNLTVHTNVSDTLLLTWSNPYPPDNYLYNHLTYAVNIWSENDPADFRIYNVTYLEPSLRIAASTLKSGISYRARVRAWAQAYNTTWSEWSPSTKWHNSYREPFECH

Substance: EPO: cytokine erythropoietin
pEC50 (cell proliferation): 10.70

pKd [1]: 4.40
Substance: solup10: 45-residue ROP-derived mini-protein containing the IL-4 binding site: MGTDIQRYERAQTLALLEKLNELDADKQADRLRKRLARNDWLFGS
toxicity to mammalian cells in combination with IL-4 (HeLa cells; in combination with IL-4 at concentrations of up to 500 μM): non-toxic
concentration up to which non-toxic to mammalian cells (HeLa cells; solup10 alone): ≥ 500 µM
helical content [2]: 34%
reversibility of temperature-induced denaturation ([3]; 5-80° C., CD signal recovered upon cooling from 80 to 5° C.): reversible process
loss of helical content at assay temperature ([3]; 25° C.): lost half of its helical content
